The values below come from paper PMC6385295 (Nature Communications, 2019).

Assay [1] has as its target T1, HLA-A*25:01 on One Lambda LABScreen Single Antigen beads (Homo sapiens, HLA-A*25:01, strain).
T1 construct: HLA-A*25:01 α chain, human; human beta-2-microglobulin; β2m and peptide are surmised for a class I HLA antigen; source: bought: One Lambda Inc. (LABScreen Single Antigen HLA Class I beads); copies: + +
The assay is described as follows: One Lambda LABScreen Single Antigen bead assay (OL-SAB), HLA Class I; 2E3-IgG1 at 1 μg mL^−1, diluted 20× in negative control serum; HLA antigens on beads. Particulars: both partners purified.

Assay [2] has as its target T2, HLA-A*26:01 on One Lambda LABScreen Single Antigen beads (Homo sapiens, HLA-A*26:01, strain).
T2 construct: HLA-A*26:01 α chain, human; human beta-2-microglobulin; β2m and peptide are surmised for a class I HLA antigen; source: bought: One Lambda Inc. (LABScreen Single Antigen HLA Class I beads); copies: + +
The assay is described as above. Particulars: both partners purified.

Assay [3] addresses T3, HLA-A*34:01 on One Lambda LABScreen Single Antigen beads (Homo sapiens, HLA-A*34:01, strain).
T3 construct: HLA-A*34:01 α chain, human; human beta-2-microglobulin; β2m and peptide are surmised for a class I HLA antigen; source: bought: One Lambda Inc. (LABScreen Single Antigen HLA Class I beads); copies: + +
Described as above. Particulars: both partners purified.

In assay [4] the target is T4, HLA-A*34:02 on One Lambda LABScreen Single Antigen beads (Homo sapiens, HLA-A*34:02, strain).
T4 construct: HLA-A*34:02 α chain, human; human beta-2-microglobulin; β2m and peptide are surmised for a class I HLA antigen; source: bought: One Lambda Inc. (LABScreen Single Antigen HLA Class I beads); copies: + +
The description is as above. As to conditions: both partners purified.

Assay [5] addresses T5, HLA-A*36:01 on One Lambda LABScreen Single Antigen beads (Homo sapiens, HLA-A*36:01, strain).
T5 construct: HLA-A*36:01 α chain, human; human beta-2-microglobulin; β2m and peptide are surmised for a class I HLA antigen; source: bought: One Lambda Inc. (LABScreen Single Antigen HLA Class I beads); copies: + +
Described as above. As to conditions: both partners purified.

For assay [6], the target named is T6, HLA-A*43:01 on One Lambda LABScreen Single Antigen beads (Homo sapiens, HLA-A*43:01, strain).
T6 construct: HLA-A*43:01 α chain, human; human beta-2-microglobulin; β2m and peptide are surmised for a class I HLA antigen; source: bought: One Lambda Inc. (LABScreen Single Antigen HLA Class I beads); copies: + +
The description is as above. As to conditions: both partners purified.

Assay [7] has as its target T7, HLA-A*66:01 on One Lambda LABScreen Single Antigen beads (Homo sapiens, HLA-A*66:01, strain).
T7 construct: HLA-A*66:01 α chain, human; has Asp90; human beta-2-microglobulin; β2m and peptide are surmised for a class I HLA antigen; source: bought: One Lambda Inc. (LABScreen Single Antigen HLA Class I beads); copies: + +
Described as above. As to conditions: both partners purified.

Assay [8] deals with T8, HLA-A*80:01 on One Lambda LABScreen Single Antigen beads (Homo sapiens, HLA-A*80:01, strain).
T8 construct: HLA-A*80:01 α chain, human; human beta-2-microglobulin; β2m and peptide are surmised for a class I HLA antigen; source: bought: One Lambda Inc. (LABScreen Single Antigen HLA Class I beads); copies: + +
The assay is described as above. As to conditions: both partners purified.

Assay [9] concerns the target T9, HLA-B*73:01 on One Lambda LABScreen Single Antigen beads (Homo sapiens, HLA-B*73:01, strain).
T9 construct: HLA-B*73:01 α chain, human; human beta-2-microglobulin; β2m and peptide are surmised for a class I HLA antigen; source: bought: One Lambda Inc. (LABScreen Single Antigen HLA Class I beads); copies: + +
Described as above. Particulars: both partners purified.

Assay [10] deals with T10, HLA-A*01:01 on One Lambda LABScreen Single Antigen beads (Homo sapiens, HLA-A*01:01, strain).
T10 construct: HLA-A*01:01 α chain, human; human beta-2-microglobulin; β2m and peptide are surmised for a class I HLA antigen; source: bought: One Lambda Inc. (LABScreen Single Antigen HLA Class I beads); copies: + +
The assay is described as above. As to conditions: both partners purified.

Assay [11] concerns the target T11, HLA-A*11:01 on One Lambda LABScreen Single Antigen beads (Homo sapiens, HLA-A*11:01, strain).
T11 construct: HLA-A*11:01 α chain, human; human beta-2-microglobulin; β2m and peptide are surmised for a class I HLA antigen; source: bought: One Lambda Inc. (LABScreen Single Antigen HLA Class I beads); copies: + +
Described as above. As to conditions: both partners purified.

The target of assay [12] is T12, refolded recombinant HLA-A*11:01 monomer (peptide-HLA complex) (Homo sapiens, HLA-A*11:01, strain, also: biotinylated in vitro by biotin ligase, peptide-HLA complex).
T12 construct: HLA-A*11:01 α chain, human, extracellular portion; human beta-2-microglobulin (β2m); the peptide of the crystallised complex is in PDB 6ID4; The methods describe one preparation (biotinylated) for all HLA monomers; copies: + +
T12 chain 1: not shown
T12 chain 2: not shown
T12 chain 3: AIFQSSMTK
Put plainly: ELISA; affinity determination: streptavidin-coated plate, increasing concentrations of biotinylated antigen (16 h) and of primary antibody (8 h), room temperature; goat-anti-human IgG-HRP. Particulars: both partners purified.

Assay [13] concerns the target T12, refolded recombinant HLA-A*11:01 …. Put plainly: quartz crystal microbalance (QCM); Attana Cell A200, 25 °C, PBS running buffer; biotinylated refolded HLA-A*11:01 held on a streptavidin-saturated LNB-carboxyl chip; 2E3-IgG1 injected at 2.5 to 20 nM, single cycle kinetics. Particulars: both partners purified.
Assay [14] concerns the target T13, HLA-A*11:01 on the surface of HLA-A*11:01-positive EBV-BCLs (Homo sapiens, HLA-A*11:01, strain).
T13 construct: HLA-A*11:01 α chain, endogenous on Epstein-Barr virus transformed B-cell lines; human beta-2-microglobulin, endogenous; The cells carry other HLA alleles too; also called A*11:01 homozygous EBV-BCLs; HLA-A*11:01 expressing target cell lines; source: endogenous, on HLA-typed EBV-BCLs; copies: + +
The assay is described as follows: flow cytometry on cells; 0.5×10^6 EBV-BCLs with 5 μg mL^−1 mouse chimeric 2E3, 4 °C, 2 h, PBS with 3% FBS; AlexaFluor-488 goat-anti-mouse IgG. Particulars: one partner purified.

Ends that are not written are not given here.

B1: human monoclonal alloantibody 2E3, recombinant human IgG1 (antibody, V domains shown)
VH: EVQLVQSGAEVKKPGASVKVSCKASGYTFTGYYMHWVRQAPGQGLEWMGWINPNSGGTSYAQKFQGRVTMTRDTSTSTVYMELSSLRSEDTAVYYCARVTTVIAGPVFDYWGQGTLVTVSS
VL: QAVLTQPSSLSASPGASASLTCTLRSGINVGPYNIYWYQQKPGSPPQYLMRYKSDPDKHQGSAVPSRFSGSKDASANAGILLISGLQSEDEADYYCMIWHNNAWVFGGGTKLTVL
notes: variable region of the 2E3 heavy chain; constant region of human IgG1 from the heavy chain expression vector; full-length 2E3 light chain; IgG1; isolated from a human Fab phage library (Humanyx) by panning on HLA-A*11:01; also called 2E3-IgG1; source: HEK293, cotransfected, purified from culture supernatants (protein G Sepharose)
B1: the binding result in assay [1], in assay [2], in assay [3], in assay [4], in assay [5] and in assay [6] was “binds” in each case. The binding result in assay [7], in [8], in assay [9], in assay [10] and in assay [11] was “binds” throughout. The Kd in assay [12] came out at 0.16 nM; in assay [13] it was 10.3 nM. Besides, the koff in assay [13] is 0.00033 s⁻¹. Also, the kon in [13] stood at 104000 M⁻¹ s⁻¹.

B2: mouse chimeric form of antibody 2E3 (mouse IgG1 constant region) (antibody, V domains shown)
VH: EVQLVQSGAEVKKPGASVKVSCKASGYTFTGYYMHWVRQAPGQGLEWMGWINPNSGGTSYAQKFQGRVTMTRDTSTSTVYMELSSLRSEDTAVYYCARVTTVIAGPVFDYWGQGTLVTVSS
VL: QAVLTQPSSLSASPGASASLTCTLRSGINVGPYNIYWYQQKPGSPPQYLMRYKSDPDKHQGSAVPSRFSGSKDASANAGILLISGLQSEDEADYYCMIWHNNAWVFGGGTKLTVL
notes: variable region of the 2E3 heavy chain; constant region of mouse IgG1 from the heavy chain expression vector; full-length 2E3 light chain; used for flow cytometry, detected with goat-anti-mouse IgG; also called mouse Fc chimeric antibody; source: HEK293, cotransfected, purified from culture supernatants (protein G Sepharose)
Turning to B2, the binding result in assay [14] is given as “binds”.
